Consider one protein from patent US20030200555.

In this data set the target is T1, coumarin-CO-REVNFEVEFR
T1 chain: REVNFEVEFR

B1: BACE 1, soluble (transmembrane domain and cytoplasmic extension excluded) human protein produced in a baculovirus expression system (protein)
chain: TQHGIRLPLRSGLGGAPLGLRLPRETDEEPEEPGRRGSFVEMVDNLRGKSGQGYYVEMTVGSPPQTLNILVDTGSSNFAVGAAPHPFLHRYYQRQLSSTYRDLRKGVYVPYTQGKWEGELGTDLVSIPHGPNVTVRANIAAITESDKFFINGSNWEGILGLAYAEIARPDDSLEPFFDSLVKQTHVPNLFSLQLCGAGFPLNQSEVLASVGGSMIIGGIDHSLYTGSLWYTPIRREWYYEVIIVRVEINGQDLKMDCKEYNYDKSIVDSGTTNLRLPKKVFEAAVKSIKAASSTEKFPDGFWLGEQLVCWQAGTTPWNIFPVISLYLMGEVTNQSFRITILPQQYLRPVEDVATSQDDCYKFAISQSSTGTVMGAVIMEGFYVVFDRARKRIGFAVSACHVHDEFRTAAVEGPFVTLDMEDCGYNIPQTDESTLMT
Turning to B1, the Km result is “The Km of the substrate is greater than 100 µM and cannot be determined due to the limit of solubility of the substrate”.
